According to PMC12309602, “NMR-guided identification of CYP11A1–Adrenodoxin interactions that differentially govern cholesterol and vitamin D3 metabolism” (The Journal of Biological Chemistry, 2025):

What was measured:
[1] = molecular target: T1, bovine CYP11A1, wild type, mature, residues 41-520 (bovine, UniProt P00189 41-520); assay: cell-based or functional assay
T1 sequence (looked up): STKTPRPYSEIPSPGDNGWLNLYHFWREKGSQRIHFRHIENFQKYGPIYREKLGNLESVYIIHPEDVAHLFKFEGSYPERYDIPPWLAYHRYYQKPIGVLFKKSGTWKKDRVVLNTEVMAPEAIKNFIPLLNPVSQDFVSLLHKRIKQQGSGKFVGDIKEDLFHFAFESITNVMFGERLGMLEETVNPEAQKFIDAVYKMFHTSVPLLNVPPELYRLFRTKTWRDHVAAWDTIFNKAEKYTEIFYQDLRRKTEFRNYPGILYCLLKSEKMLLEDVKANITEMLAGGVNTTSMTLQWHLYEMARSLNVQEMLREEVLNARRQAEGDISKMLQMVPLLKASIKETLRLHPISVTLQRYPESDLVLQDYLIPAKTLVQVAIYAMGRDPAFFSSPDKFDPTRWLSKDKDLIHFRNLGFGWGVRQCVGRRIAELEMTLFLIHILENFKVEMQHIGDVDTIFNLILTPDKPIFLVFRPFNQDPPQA

[2] = molecular target: T1, bovine CYP11A1, wild type, mature, …; assay: NMR titration; 2D 1H,15N-HSQC of 50 uM 15N-Adx with 0.25 to 1.0 equivalents of CYP11A1; 50 mM potassium phosphate, 50 mM NaCl, pH 7.2; peak intensity ratios; some samples with cholesterol or vitamin D3 in 25% HPCD added to the pre-formed complex; conditions: both partners purified

B1: bovine Adrenodoxin M77L (natural protein)
chain: SSSEDKITVHFINRDGETLTTKGKIGDSLLDVVVQNNLDIDGFGACEGTLACSTCHLIFEQHIFEKLEAITDEENDLLDLAYGLTDRSRLGCQICLTKAMDNMTVRVPDAVSDARESIDMGMNSSKIE
modifications: uniform 15N labelling in the NMR samples
reconstituted CYP11A1 assay, side chain cleavage of cholesterol: pregnenolone produced with Adx M77L compared to WT Adx, at 45 min [1]: 0.6 fold (decrease relative to WT Adx) | reconstituted CYP11A1 assay: vitamin D3 depletion with Adx M77L compared to WT Adx, at 45 min [1]: 0.7 fold (decrease relative to WT Adx)

B2: bovine Adrenodoxin M77S (natural protein)
chain: SSSEDKITVHFINRDGETLTTKGKIGDSLLDVVVQNNLDIDGFGACEGTLACSTCHLIFEQHIFEKLEAITDEENDSLDLAYGLTDRSRLGCQICLTKAMDNMTVRVPDAVSDARESIDMGMNSSKIE
modifications: uniform 15N labelling in the NMR samples
reconstituted CYP11A1 assay: vitamin D3 metabolism with Adx M77S compared to WT Adx, at 45 min [1]: ~0.3 fold (increase relative to WT Adx)

B3: bovine Adrenodoxin, wild type (15N-labeled for NMR) (natural protein)
chain: SSSEDKITVHFINRDGETLTTKGKIGDSLLDVVVQNNLDIDGFGACEGTLACSTCHLIFEQHIFEKLEAITDEENDMLDLAYGLTDRSRLGCQICLTKAMDNMTVRVPDAVSDARESIDMGMNSSKIE
modifications: uniform 15N labelling in the NMR samples
notes: Adrenodoxin (Adx), bovine; Carries a 2Fe-2S cluster; also called Adx; WT Adx; source: Ni-NTA, then size exclusion chromatography (Superdex 75)
binding result [2]: binds
